In US20200291354A1 (Novartis, published 2020):

Molecular target: T1, PD1 (Programmed Death 1) (human, UniProt Q15116 25-288)
T1 construct: whole, on cells
Assay: flow cytometry on T cells electroporated with PD1 and minibody mRNA; biotinylated goat anti-human IgG1 and streptavidin-PE
From the text: FIG. 8 is a panel of images and graphs showing detection of PD1 minibody or PD1-PDL1 bispecific minibody bound on T cells. T cells were electroporated with mRNA (PD1, PD1 and PD1 minibody, and PD1 and PD1-PDL1 bispecific minibody) as specified. The T cells were stained with biotinylated goat anti-human IgG1 and then streptavidin-PE. Biotin anti-human IgG1 specifically detected PD1 minibody or PD1-PDL1 bispecific minibody […] when the cells expressed PD1. PD1 expressed on the T cell acted as an anchor for the secreted antibodies to bind that would otherwise not interact with the T cell.
Flow Cytometry Analysis. Tumor cells were cultured in the absence or presence of IFN-γ (R&D systems, Minneapolis, Minn.) at 20 ng/m1 for 24 hrs before the cells were harvested for staining with PDL1-PE (BioLegend). Live cells were gated on the live cell population by forward scatter/side scatter (FSC/SSC) and then PDL-1 positivity by PE expression. K562 cells and K562 PDL1/CD19 cells were stained with PDL1-PE (BioLegend, San Diego, Calif.) and CD19-PacBlue (Life Technologies, Carlsbad, Calif.). […]
FIG. 8 is a panel of images and graphs showing detection of PD1 minibody or PD1-PDL1 bispecific minibody on T cells. […] Biotin anti-human IgG1 specifically detected PD1 minibody or PD1-PDL1 bispecific minibody when the cells expressed PD1. […]

T1 sequence (Q15116 25-288): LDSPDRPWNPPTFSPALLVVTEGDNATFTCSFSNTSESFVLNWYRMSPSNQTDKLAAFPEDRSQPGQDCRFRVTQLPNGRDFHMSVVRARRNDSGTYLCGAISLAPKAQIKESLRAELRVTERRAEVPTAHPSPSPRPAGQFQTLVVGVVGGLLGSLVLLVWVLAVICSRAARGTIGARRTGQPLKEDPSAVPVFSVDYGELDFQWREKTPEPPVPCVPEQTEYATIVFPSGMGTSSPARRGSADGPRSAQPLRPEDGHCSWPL

B1: PD1 minibody (other)
chain: QVQLQESGPGVVKPSGTLSLTCAISGGSIGSGGSIRSTRWWSWVRQSPGKGLEWIGEIYHSGSTNYNPSLKSRVTISLDKSRNHFSLRLNSVTAADTAVYYCARQDYGDSGDWYFDLWGKGTMVTVSSGGGSGGGSGGGSGGGSNFMLTQPHSVSESPGKTVTISCTRSSGSIASNSVQWYQQRPGSSPTTVIYEDNQRPSGVPDRFSGSIDSSSNSASLTVSGLKTEDEADYYCQSSDSSAVVFGSGTKLTVLEPKSCDKTHTCPPCGGGSSGGGSGGQPREPQVYTLPPSRDELTKNQVSLTCLVKGFYPSDIAVEWESNGQPENNYKTTPPVLDSDGSFFLYSKLTVDKSRWQQGNVFSCSVMHEALHNHYTQKSLSLSPGK
notes: Minibody: single chain VH-linker-VL-hinge-CH3, secreted by T cells electroporated with its mRNA; Variable regions are from PD1-17 of U.S. Pat. No. 7,488,802; also called PD1 minbody
Does B1 bind?
Result: binds
